Measurements taken from article PMC8294587, “Intrinsic differences in the mechanisms of Tie2 binding to angiopoietins exploited by directed evolution to create an Ang2-selective ligand trap” (The Journal of Biological Chemistry, 2021).

Experiments:
Assay in all cases: ELISA; recombinant Ang1 or Ang2 immobilised on Maxisorp plates, blocked with TBS, 0.1% Triton-X100, 5% milk powder; Tie2 ectodomain proteins bound for 1 h; detected with anti-Tie2 ectodomain antibodies; EC50 = concentration of ectodomain for 50% of maximal binding
Conditions in all cases: both partners purified
Angiopoietin-1 = biological target: T1, Angiopoietin-1 (UniProt Q15389 16-498)
T1 construct: recombinant Ang1; the residue numbers printed for Ang1 (Gln415, Asp450, Leu471, Tyr478) come from the cited structure 4K0V; also called Ang1; source: recombinant
T1 sequence (looked up): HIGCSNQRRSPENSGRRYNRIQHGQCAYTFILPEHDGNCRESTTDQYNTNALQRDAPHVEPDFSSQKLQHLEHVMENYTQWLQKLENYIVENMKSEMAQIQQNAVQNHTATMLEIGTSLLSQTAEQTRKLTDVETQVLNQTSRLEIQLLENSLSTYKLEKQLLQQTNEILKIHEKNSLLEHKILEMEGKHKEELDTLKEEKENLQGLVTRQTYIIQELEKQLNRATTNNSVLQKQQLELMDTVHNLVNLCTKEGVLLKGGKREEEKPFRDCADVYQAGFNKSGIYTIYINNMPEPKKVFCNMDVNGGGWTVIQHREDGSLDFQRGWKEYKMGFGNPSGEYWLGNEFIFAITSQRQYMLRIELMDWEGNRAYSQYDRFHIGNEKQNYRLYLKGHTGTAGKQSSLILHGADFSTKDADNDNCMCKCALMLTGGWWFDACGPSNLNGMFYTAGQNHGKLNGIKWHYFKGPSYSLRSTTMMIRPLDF

Angiopoietin-2 [1] = biological target: T2, Angiopoietin-2 (UniProt O15123 19-496)
T2 construct: recombinant Ang2; the residue numbers printed for Ang2 (Asp448, Phe469, Ser480) come from the cited structure 2GY7; also called Ang2; source: recombinant
T2 sequence (looked up): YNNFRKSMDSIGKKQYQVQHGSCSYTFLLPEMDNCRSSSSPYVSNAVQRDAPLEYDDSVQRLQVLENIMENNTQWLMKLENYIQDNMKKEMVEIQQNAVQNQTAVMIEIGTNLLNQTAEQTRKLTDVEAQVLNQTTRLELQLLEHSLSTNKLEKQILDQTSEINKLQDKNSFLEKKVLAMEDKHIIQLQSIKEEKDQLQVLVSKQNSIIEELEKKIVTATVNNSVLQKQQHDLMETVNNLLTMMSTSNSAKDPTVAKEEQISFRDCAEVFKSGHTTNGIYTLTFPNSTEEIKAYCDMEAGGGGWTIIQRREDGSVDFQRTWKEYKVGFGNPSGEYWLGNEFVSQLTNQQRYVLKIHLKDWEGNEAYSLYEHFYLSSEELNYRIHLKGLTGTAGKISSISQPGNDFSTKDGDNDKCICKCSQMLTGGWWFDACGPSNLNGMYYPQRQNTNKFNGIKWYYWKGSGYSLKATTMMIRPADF

Angiopoietin-2 [2] = biological target: T2, Angiopoietin-2; remark: listed apart in the source

B1: Tie2 ectodomain-Fc I162A (Fc fusion, human, UniProt Q02763 23-442, looked up)
chain: AMDLILINSLPLVSDAETSLTCIASGWRPHEPITIGRDFEALMNQHQDPLEVTQDVTREWAKKVVWKREKASKINGAYFCEGRVRGEAIRIRTMKMRQQASFLPATLTMTVDKGDNVNISFKKVLIKEEDAVIYKNGSFAHSVPRHEVPDILEVHLPHAQPQDAGVYSARYIGGNLFTSAFTRLIVRRCEAQKWGPECNHLCTACMNNGVCHEDTGECICPPGFMGRTCEKACELHTFGRTCKERCSGQEGCKSYVFCLPDPYGCSCATGWKGLQCNEACHPGFYGPDCKLRCSCNNGEMCDRFQGCLCSPGWQGLQCEREGIQRMTPKIVDLPDHIEVNSGKFNPICKASGWPLPTNEEMTLVKPDGTVLHPKDFNHTDHFSVAIFTIHRILPPDSGVWVCSVNTVAGMVEKPFNISVK
notes: signal peptide in the construct; Tie2 ectodomain, human, residues 1-442; source: Hek293, transfected, purified from culture medium (nickel chromatography); not shown: Fc (fragment of human Fc immunoglobulin domain, after a GS4 linker), C-terminal, kept
Question: What does the source list for B1?
Answer: EC50 (Angiopoietin-1): 6.38 nM; EC50 (Angiopoietin-2 [1]): 23.1 nM

B2: Tie2 ectodomain-Fc R167A (Fc fusion, human, UniProt Q02763 23-442, looked up)
chain: AMDLILINSLPLVSDAETSLTCIASGWRPHEPITIGRDFEALMNQHQDPLEVTQDVTREWAKKVVWKREKASKINGAYFCEGRVRGEAIRIRTMKMRQQASFLPATLTMTVDKGDNVNISFKKVLIKEEDAVIYKNGSFIHSVPAHEVPDILEVHLPHAQPQDAGVYSARYIGGNLFTSAFTRLIVRRCEAQKWGPECNHLCTACMNNGVCHEDTGECICPPGFMGRTCEKACELHTFGRTCKERCSGQEGCKSYVFCLPDPYGCSCATGWKGLQCNEACHPGFYGPDCKLRCSCNNGEMCDRFQGCLCSPGWQGLQCEREGIQRMTPKIVDLPDHIEVNSGKFNPICKASGWPLPTNEEMTLVKPDGTVLHPKDFNHTDHFSVAIFTIHRILPPDSGVWVCSVNTVAGMVEKPFNISVK
notes: signal peptide in the construct; Tie2 ectodomain, human, residues 1-442; also called Arg167Ala; source: Hek293, transfected, purified from culture medium (nickel chromatography); not shown: Fc (fragment of human Fc immunoglobulin domain, after a GS4 linker), C-terminal, kept
Question: Which EC50 (Angiopoietin-1) does the source give for B2 here?
Answer: 26.6 nM

Question: What about the EC50 (Angiopoietin-2 [1]) of the same binder?
Answer: 10.3 nM

B3: Tie2 ectodomain-Fc S164A (Fc fusion, human, UniProt Q02763 23-442, looked up)
chain: AMDLILINSLPLVSDAETSLTCIASGWRPHEPITIGRDFEALMNQHQDPLEVTQDVTREWAKKVVWKREKASKINGAYFCEGRVRGEAIRIRTMKMRQQASFLPATLTMTVDKGDNVNISFKKVLIKEEDAVIYKNGSFIHAVPRHEVPDILEVHLPHAQPQDAGVYSARYIGGNLFTSAFTRLIVRRCEAQKWGPECNHLCTACMNNGVCHEDTGECICPPGFMGRTCEKACELHTFGRTCKERCSGQEGCKSYVFCLPDPYGCSCATGWKGLQCNEACHPGFYGPDCKLRCSCNNGEMCDRFQGCLCSPGWQGLQCEREGIQRMTPKIVDLPDHIEVNSGKFNPICKASGWPLPTNEEMTLVKPDGTVLHPKDFNHTDHFSVAIFTIHRILPPDSGVWVCSVNTVAGMVEKPFNISVK
notes: as for B1
Question: B3 was tested. Which EC50 (Angiopoietin-1) did it give?
Answer: 0.44 nM

Question: What about the EC50 (Angiopoietin-2 [1]) of the same binder?
Answer: 14.4 nM

B4: Tie2 ectodomain-Fc V165A (Fc fusion, human, UniProt Q02763 23-442, looked up)
chain: AMDLILINSLPLVSDAETSLTCIASGWRPHEPITIGRDFEALMNQHQDPLEVTQDVTREWAKKVVWKREKASKINGAYFCEGRVRGEAIRIRTMKMRQQASFLPATLTMTVDKGDNVNISFKKVLIKEEDAVIYKNGSFIHSAPRHEVPDILEVHLPHAQPQDAGVYSARYIGGNLFTSAFTRLIVRRCEAQKWGPECNHLCTACMNNGVCHEDTGECICPPGFMGRTCEKACELHTFGRTCKERCSGQEGCKSYVFCLPDPYGCSCATGWKGLQCNEACHPGFYGPDCKLRCSCNNGEMCDRFQGCLCSPGWQGLQCEREGIQRMTPKIVDLPDHIEVNSGKFNPICKASGWPLPTNEEMTLVKPDGTVLHPKDFNHTDHFSVAIFTIHRILPPDSGVWVCSVNTVAGMVEKPFNISVK
notes: as for B1
Question: B4 was tested. Which EC50 (Angiopoietin-1) did it give?
Answer: 14.3 nM

Question: And the EC50 (Angiopoietin-2 [1])?
Answer: 77.7 nM

B5: R5 Tie2 ectodomain-Fc (Phe161Ile, deletion of Arg167 and His168, Ser164Leu, Pro171Ser) (Fc fusion, human, UniProt Q02763 23-442, looked up)
chain: AMDLILINSLPLVSDAETSLTCIASGWRPHEPITIGRDFEALMNQHQDPLEVTQDVTREWAKKVVWKREKASKINGAYFCEGRVRGEAIRIRTMKMRQQASFLPATLTMTVDKGDNVNISFKKVLIKEEDAVIYKNGSIIHLVPEVSDILEVHLPHAQPQDAGVYSARYIGGNLFTSAFTRLIVRRCEAQKWGPECNHLCTACMNNGVCHEDTGECICPPGFMGRTCEKACELHTFGRTCKERCSGQEGCKSYVFCLPDPYGCSCATGWKGLQCNEACHPGFYGPDCKLRCSCNNGEMCDRFQGCLCSPGWQGLQCEREGIQRMTPKIVDLPDHIEVNSGKFNPICKASGWPLPTNEEMTLVKPDGTVLHPKDFNHTDHFSVAIFTIHRILPPDSGVWVCSVNTVAGMVEKPFNISVK
notes: signal peptide in the construct; Tie2 ectodomain, human, residues 1-442, variant from directed evolution; also called R5-Fc; evolved ectodomain; source: Hek293, transfected, purified from culture medium (nickel chromatography); not shown: Fc (fragment of human Fc immunoglobulin domain, after a GS4 linker), C-terminal, kept
Question: With B5 as the binder, how does the EC50 (Angiopoietin-2 [2]) read?
Answer: 3.4 nM
